B1: Photosystem I light harvesting complex gene 1 (natural protein, Arabidopsis thaliana, UniProt Q01667 1-241, looked up)
chain: MASNSLMSCGIAAVYPSLLSSSKSKFVSAGVPLPNAGNVGRIRMAAHWMPGEPRPAYLDGSAPGDFGFDPLGLGEVPANLERYKESELIHCRWAMLAVPGILVPEALGYGNWVKAQEWAALPGGQATYLGNPVPWGTLPTILAIEFLAIAFVEHQRSMEKDPEKKKYPGGAFDPLGYSKDPKKLEELKVKEIKNGRLALLAFVGFCVQQSAYPGTGPLENLATHLADPWHNNIGDIVIPFN
B2: Photosystem I reaction center subunit PSI-N (natural protein, Arabidopsis thaliana, UniProt P49107 1-171, looked up)
chain: MAAMNSSVLTCSYAIAGSGSVELNQKVGLVNSSVGFGQKKQMIMPVIKAQRVVGDDVDGSNGRRSAMVFLAATLFSTAAVSASANAGVIDEYLERSKTNKELNDKKRLATSGANFARAFTVQFGSCKFPENFTGCQDLAKQKKVPFISEDIALECEGKDKYKCGSNVFWKW
B3: Cytochrome b561-2 (natural protein, Arabidopsis thaliana, UniProt Q8L856 1-239, looked up)
chain: MAVRINAMAVTFVAHALAVIAAIMVLVWSISYRGGLAWEATNKNLIFNLHPVLMLIGFIILGGEAIISYKSLPLEKPVKKLIHLILHAIALALGIFGICAAFKNHNESHIPNLYSLHSWIGIGVISLYGFQWVYSFIVFFFPGGSTNLKSGLLPWHAMLGLFVYILAVGNAALGFLEKLTFLENGGLDKYGSEAFLINFTAIITILFGAFVVLTASAESPSPSPSVSNDDSVDFSYSAI
B4: Photosystem I light harvesting complex gene 3 (natural protein, Arabidopsis thaliana, UniProt Q9SY97 1-273, looked up)
chain: MAAQALVSSSLTSSVQTARQIFGSKPVASASQKKSSFVVKAAATPPVKQGANRPLWFASSQSLSYLDGSLPGDYGFDPLGLSDPEGTGGFIEPRWLAYGEIINGRFAMLGAAGAIAPEILGKAGLIPAETALPWFQTGVIPPAGTYTYWADNYTLFVLEMALMGFAEHRRLQDWYNPGSMGKQYFLGLEKGLAGSGNPAYPGGPFFNPLGFGKDEKSLKELKLKEVKNGRLAMLAILGYFIQGLVTGVGPYQNLLDHLADPVNNNVLTSLKFH
B5: Protochlorophyllide oxidoreductase B (natural protein, Arabidopsis thaliana, UniProt P21218 1-401, looked up)
chain: MALQAASLVSSAFSVRKDAKLNASSSSFKDSSLFGASITDQIKSEHGSSSLRFKREQSLRNLAIRAQTAATSSPTVTKSVDGKKTLRKGNVVVTGASSGLGLATAKALAETGKWNVIMACRDFLKAERAAKSVGMPKDSYTVMHLDLASLDSVRQFVDNFRRTETPLDVLVCNAAVYFPTAKEPTYSAEGFELSVATNHLGHFLLARLLLDDLKKSDYPSKRLIIVGSITGNTNTLAGNVPPKANLGDLRGLAGGLNGLNSSAMIDGGDFDGAKAYKDSKVCNMLTMQEFHRRFHEETGVTFASLYPGCIASTGLFREHIPLFRALFPPFQKYITKGYVSETESGKRLAQVVSDPSLTKSGVYWSWNNASASFENQLSEEASDVEKARKVWEISEKLVGLA
B6: Ferredoxin-thioredoxin reductase subunit A (natural protein, Arabidopsis thaliana, UniProt Q9SJ89 1-146, looked up)
chain: MNLQAVSCSFGFLSSPLGVTPRTSFRRFVIRAKTEPSEKSVEIMRKFSEQYARRSGTYFCVDKGVTSVVIKGLAEHKDSYGAPLCPCRHYDDKAAEVGQGFWNCPCVPMRERKECHCMLFLTPDNDFAGKDQTITSDEIKETTANM
B7: Photosystem I subunit F (natural protein, Arabidopsis thaliana, UniProt Q9SHE8 1-221, looked up)
chain: MSLTIPANLVLNPRSNKSLTQSVPKSSARFVCSDDKSSSSTPQSMKAFSAAVALSSILLSAPMPAVADISGLTPCKDSKQFAKREKQQIKKLESSLKLYAPESAPALALNAQIEKTKRRFDNYGKYGLLCGSDGLPHLIVNGDQRHWGEFITPGILFLYIAGWIGWVGRSYLIAISGEKKPAMKEIIIDVPLASRIIFRGFIWPVAAYREFLNGDLIAKDV
B8: 5′-Adenylylsulfate reductase 2 (natural protein, Arabidopsis thaliana, UniProt P92981 1-454, looked up)
chain: MALAVTSSSTAISGSSFSRSGASSESKALQICSIRLSDRTHLSQRRYSMKPLNAESHSRSESWVTRASTLIAPEVEEKGGEVEDFEQLAKKLEDASPLEIMDKALERFGDQIAIAFSGAEDVALIEYARLTGKPFRVFSLDTGRLNPETYRLFDAVEKQYGIRIEYMFPDAVEVQALVRNKGLFSFYEDGHQECCRVRKVRPLRRALKGLKAWITGQRKDQSPGTRSEIPIVQVDPVFEGLDGGVGSLVKWNPLANVEGADVWNFLRTMDVPVNALHAQGYVSIGCEPCTRPVLPGQHEREGRWWWEDAKAKECGLHKGNIKEEDGAADSKPAAVQEIFESNNVVALSKGGVENLLKLENRKEAWLVVLYAPWCPFCQAMEASYIELAEKLAGKGVKVAKFRADGEQKEFAKQELQLGSFPTILLFPKRAPRAIKYPSEHRDVDSLMSFVNLLR
B9: Violaxanthin Deepoxidase (natural protein, Arabidopsis thaliana, UniProt Q39249 1-462, looked up)
chain: MAVATHCFTSPCHDRIRFFSSDDGIGRLGITRKRINGTFLLKILPPIQSADLRTTGGRSSRPLSAFRSGFSKGIFDIVPLPSKNELKELTAPLLLKLVGVLACAFLIVPSADAVDALKTCACLLKGCRIELAKCIANPACAANVACLQTCNNRPDETECQIKCGDLFENSVVDEFNECAVSRKKCVPRKSDLGEFPAPDPSVLVQNFNISDFNGKWYITSGLNPTFDAFDCQLHEFHTEGDNKLVGNISWRIKTLDSGFFTRSAVQKFVQDPNQPGVLYNHDNEYLHYQDDWYILSSKIENKPEDYIFVYYRGRNDAWDGYGGAVVYTRSSVLPNSIIPELEKAAKSIGRDFSTFIRTDNTCGPEPALVERIEKTVEEGERIIVKEVEEIEEEVEKEVEKVGRTEMTLFQRLAEGFNELKQDEENFVRELSKEEMEFLDEIKMEASEVEKLFGKALPIRKVR
B10: Photosystem I light harvesting complex gene 2 (natural protein, Arabidopsis thaliana, UniProt Q9SYW8 1-257, looked up)
chain: MASSLCASSAIAAISSPSFLGGKKLRLKKKLTVPAVSRPDASVRAVAADPDRPIWFPGSTPPEWLDGSLPGDFGFDPLGLSSDPDSLKWNVQAEIVHCRWAMLGAAGIFIPEFLTKIGILNTPSWYTAGEQEYFTDKTTLFVVELILIGWAEGRRWADIIKPGSVNTDPVFPNNKLTGTDVGYPGGLWFDPLGWGSGSPAKLKELRTKEIKNGRLAMLAVMGAWFQHIYTGTGPIDNLFAHLADPGHATIFAAFTPK
B11: Cysteine synthase (natural protein)
chain: not shown
B12: AIG2-like avirulence induced gene family protein (natural protein, Arabidopsis thaliana, UniProt Q9MBH2 1-169, looked up)
chain: MTSSDKSLSHDVFVYGSFQEPSVVNLILECSPVMVPAQLHGYHVYRLKGRLHACISPSENGLINGKILTGLTDSQLENLDMIEGSEYVRKTVEVVLTDTSEKKQVETYVWANKDDPNLYGEWDFEEWRRLHMDKFIEASTKFIEWKKNPDGRSREEFEKFVFDDPPTAA
B13: Low PSII accumulation 3 protein (natural protein)
chain: not shown

The experiment deals with T1, atToc132 A- plus G-domains bait (Arabidopsis thaliana, UniProt Q9SLF3 1-794).
T1 construct: atToc132, A. thaliana, A- and G-domains, amino acids 1-794; also called Toc132AG; atToc132AG; source: yeast two-hybrid fusion (pBT3-STE, S. cerevisiae NMY51); not shown: STE2 leader (N-terminal 13 amino acids of S. cerevisiae Ste2), N-terminal, kept; Cub-LexA-VP16, C-terminal, kept
T1 sequence (Q9SLF3 1-794): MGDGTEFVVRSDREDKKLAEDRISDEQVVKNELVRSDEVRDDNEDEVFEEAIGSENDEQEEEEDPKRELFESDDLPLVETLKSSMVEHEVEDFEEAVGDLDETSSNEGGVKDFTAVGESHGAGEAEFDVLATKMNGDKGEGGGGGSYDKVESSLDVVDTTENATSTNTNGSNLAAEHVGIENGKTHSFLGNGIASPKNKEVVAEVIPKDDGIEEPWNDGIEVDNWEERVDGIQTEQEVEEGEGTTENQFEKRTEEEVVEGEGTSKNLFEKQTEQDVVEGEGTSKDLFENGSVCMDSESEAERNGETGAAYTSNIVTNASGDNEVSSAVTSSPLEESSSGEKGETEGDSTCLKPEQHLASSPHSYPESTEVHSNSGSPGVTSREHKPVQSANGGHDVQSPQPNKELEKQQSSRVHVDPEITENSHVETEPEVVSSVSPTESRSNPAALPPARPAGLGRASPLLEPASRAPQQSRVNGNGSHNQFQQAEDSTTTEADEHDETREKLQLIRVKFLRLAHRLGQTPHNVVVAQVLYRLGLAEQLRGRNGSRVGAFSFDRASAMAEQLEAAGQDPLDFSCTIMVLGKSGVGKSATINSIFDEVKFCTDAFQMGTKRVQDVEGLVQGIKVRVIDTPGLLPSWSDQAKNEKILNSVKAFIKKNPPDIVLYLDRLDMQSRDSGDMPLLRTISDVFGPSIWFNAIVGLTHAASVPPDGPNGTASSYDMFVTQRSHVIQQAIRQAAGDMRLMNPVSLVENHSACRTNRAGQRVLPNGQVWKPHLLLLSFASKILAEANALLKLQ
As to the kind of experiment: two-hybrid; pairwise split-ubiquitin yeast two-hybrid of isolated NubG-preys with Toc159G, Toc132G or Toc132AG bait in NMY51; growth on SD-LWHA (3-AT) and quantitative β-Gal assay, activity relative to a reference bait set to 100%. Conditions: partners not purified.
For B1, the “relative strength of interaction (β-Gal) with Toc132AG against Toc132G, % change” value (“relative strength of interaction … % change” below) is -24.5%. Same read-out and setting: the value for B2 was -25.4%. For B3, the “% increase in strength of interaction (β-Gal) with Toc132AG against Toc132G” value (shortened to “% increase in strength of interaction”) amounted to 49.6%. As to B4, the “relative strength of interaction … % change” value was -26.8%. On the same count and under the same terms, to B5 belongs -34.7%; to B6, -15%. Consider B7, for which the “relative strength of interaction … % change” value is -25.5%. For the molecule B8, the “% increase in strength of interaction” value is 24.5%. Take B9: the “relative strength of interaction … % change” value was -29.9%.

Turning to B10, the “relative strength of interaction … % change” value was -36.4%.

For B11, the “% increase in strength of interaction” value worked out at 175%.

B12: the “% increase in strength of interaction” value came to 41.3%. For B13, the “relative strength of interaction … % change” value is -11.7%.

Source of the values: article PMC3988174, “A Split-Ubiquitin Yeast Two-Hybrid Screen to Examine the Substrate Specificity of atToc159 and atToc132, Two Arabidopsis Chloroplast Preprotein Import Receptors” (PLoS ONE, 2014).
